Source: the supplement of paper PMC12636428

tested on: Saccharomyces cerevisiae; assay: transcriptional activation domain activity (GFP:mCherry ratio, weighted mean of sorted bins, harmonized to initial dataset scale) (arbitrary fluorescence ratio units); higher = stronger transcriptional activation; conditions: beta-estradiol 1 µM; induction time 4 h
Procedure, shortened: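 The activation activity of each tile is the read-weighted mean of bin median fluorescence, averaged across its barcodes and mapped linearly onto the scale of the initial dataset. Tiles were fused to an estradiol-inducible synthetic transcription factor, barcoded, and integrated at URA3 in yeast diploids carrying a GFP reporter. Induction used 1 uM beta-estradiol in SC for 4 hours at 30 °C, after which cells were sorted into 8 GFP:mCherry bins, and any tile with fewer than 50 reads was dropped.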

Sequence	transcriptional activation domain activity
KQYCVRPNSGRIESGKEVEVQVLLQAMKNDPPADYKCRDKFLVQSVAITADRE	53400
PKRASQGRNFNTLFDKYFTGKDWEIHIMRTLRPDIFILLCVLFVPTEFKEIHD	37700
SIHLPKKITICTYIGTYYAIGAAWGFVLMNYFLTGWYFGLYDKYYIDSFGIYV	76000
TENIERVLERGERIDLLVDKTGRLNVGANEFRRRSRGLRRRMWWKNVKLMALL	65200
MLYLYPLYLGYYLFLFLSISRLEKFLHIGSLITCLPRLVSLEIRLTLCLYYHL	80100
ITQMQQTDFYHVDQDDYVHSFVIHNSRLMWNVAIRAIVMRFIELQSQASLLQY	51800
DRRYRISRGGSRMNQVVENTVSRWVGMLPTWRCGLLLHAFVHLKKVYWCPFLR	72700
RRDALRAQQQRDTHARHGAGAARKHGQPVCVRQHRGQLHLSEPVGGAAAAAVH	66200
LGDQPHIPIPVAFRNIWSFLRVCTLEGFDAKEILPILFALSPGAQLRFIRCRS	70800
RCPAARLASSAPSAPPTPASASRTCPRPPRPSPRRTSSKSCSTRSSSASATPR	48000
APPPAAAPSQPASQPAPAEKHEEPAPQPSPEPQPEPQAQIEESKQEPAPEPQA	20300
LQTYMRSLEWTILTCSVIEIIEKLKMAPENMHELSPLCVKLIIKFCLTEILSY	43400
LIVVLILAPHPSLFRMLLRHHLQTLQQPFYFVIHLLVTYTLTFCAFSSLIICA	53700
IVLSVLCSLLNTTLKYNPATWRVPYDHVVFKDSRQILVSYCLQFLLVLILYPV	46600
VGIKVAEDKQQEMRDAGRRTRGARLSSFGNALVIGGGRLSDGYVGTRELKTHV	50500
QGTNHAYHEHILNTDMDLKILEDLCNISSLYEVPFGKHINHHDHNNAGNGCDG	83400
KIHIANMAQVAVFLLHKILYGIIPLFEISTCAYFPLLISLWHLNYLLFYTVMF	63200
YNLVLSHNLVLSHLWHHYYVQHLHGLLRSFSSINLPFLLHLPLSLLLLHWVTW	55700
RTYVQYWIQAFPKIARFFTIFFAAMSVTRYKAFMDSPVLALNNLAKRILRMSL	44500
VETRSFWFLPVIQKHALHLTMVDILSSTPGIWCLSEFMIGHLLLCVHLRSISV	60500
LFALAMLLLFCFIGLLVSGLHFGHRVYSDDCLGQSWIMFSSILGFLYIGLHVQ	32600

Sequence	transcriptional activation domain activity
FDLDDQYLANVVAEDRDASVLVQMSIIVQEGEHSHKSEQEPHISLLVLRRKRL	40200
FSMRFVVLIDLFATFLQPASIIYVLYLIYVAAFDKATAFPMISLIMLACIYGL	17000
GLKLSPSSSGLLSTNESNAIEQFLDNLISQDMMSSNASMNSESHLHIRSPKKQ	68400
ILFCSWLSFRQLFFLFICNTHHWVFEDYFCHFSFFLSLFLMAITWKCFFFFFF	38900
YLVMVYAWILWLSLVVLLALIAFYLFMVIWNIDRGTPSPVCLVVFCMQFICTL	44200
TPIDVETDDPDIYIKPALDGSLNLLTSIVRYGQVIRGLSSCIIHLFNNVHLVR	43000
MISFFNWQVWGGFCGLLFIFFLFDFFLLEFGSTYHLLEDGLNLFLFWYFYDYD	43600
ANQCGEVDMLSRILLIVVTYLVILRRYRDALDIIERQALPMTLALGRPLWIGR	62400
SQEESIDNENQKVKEEEIEISVNNIKTEVEKEELKKDNKKGKKVVNKKEIKEE	39900
YKKLQWHYFLFDLCYYVNILNFVFLWIFPHSPSLFVACYCLSLGSVASAIITW	27700
SFLIFLLCEYARHVLVTSITVPHYLEYADVWRGNGQMDFRLLIRMFSTDTRRK	45000
NIPIESSWHLFTNYVGLDIKQIVLLGKSLHYFNPGFLLHVNLFNWLWPKIVQL	63300
MDESDGERGGGYGVFFLLFFFFFFLSFLFSFWLFLLFTFVLISFFGAITLLKE	25600
CFFYSAIWLTTIPHCTGRCVRPCGVHLINLGHVCRNHSRYWGYCICNNKMTPY	57600
MPSAATRPCVQCAAAASRYNCPQCRASTCSAPCSKAHKLRAHGSDAAAGPSSA	47500
MLSFVIVRLLTSHLQLVWRAALLLCKPLCICPLQFLYDRESHYNLLCNEAVVF	68500
NLRLMIVNFRKYGVLICIRCHDYRRQDVVYGLLLYLLVPCHLFVAYLIELAAA	47800
MLYSFRLLFILFFFLLEALSICRRCNVTGRGCFRDWDCWNACHQYAVSPRWGI	41900
IIRLCSYFQRYVDLPIHNIYDRIAAHASTEILFYANALKEDFFRFGLVYRLYA	59200
ITQVEDRSKGYLIGLVKELVAEYVEDLNALVLLACSLKVGIQVSSAAGMIYKK	53600
MLWLVSWWLCLVVSNTLLFYLGEGGLVCFILCNSSFQVYLFLDLFIFLLFIHS	39800

Sequence	transcriptional activation domain activity
GVLALSPCDDTTLKATMGVIEELLIYLYFAGQMRELFYWACRVVNLSVHHGHA	69100
KIAAGAALATAAGVGLHHLRERQRSQSRSSSSERSGRSRSRHRLRHAAELGAA	64000
AHVTMPYLLAIACHTAGIICMWICYCACLVWCSTVLPILLIIIIILIVFLNAN	25200
EAAAGSVKNEAGESSASSAARGGRGGRRGGGGPGSRGGKVGRGRGGRAGASQE	32500
FVYLILTILPCLDHRCPYRTPMSSIWWYCWHTSLGFFALCARWLLNLLHGILV	50200
MRTGSNFVLFAFFCLVLMFTLTFILVFVCCASVGGILYPFRFLLSFVWILVSL	28200
ESHLVPEASKIWKPLDGYWMPSWMKYQIFIPLFMLQLLNLFWYFLIWHILIRA	44900
MVLSILEIICAVVVLHPSCNYHIFSQCICEFSSWSFAISALLVVVLFWAAVAR	56000
KMVHRPLLWYFTVFLVDMYTALRLFRLGFRHYAPRTQTRSWFRVFPPRPFTWV	71700
KREDIVRVVNGIFCCYILTFSLFFLFFLVYPSLCFLCLFPLCGVLSFFYLYFP	20900
ATIIFVFTASICGYNFNFDWVFSYKLVEFENTLGWTLFCLWLFDALLCVLFMT	52700
SPLPPPSPFFPLQPLSLFHLSPLFSPVSLHFPCFSPFPPPLPPFFLPLLPLLS	60500
LFSCCCLLRTLGRFLLFIIFFPSLSTCSFFYFLVLFLFSFQTYFLLYLYLLSI	43800
IISARDAGNGEEAAAQNVLNCFEYQFPNLQTIQSLVHEQTLLSQLASSATPHS	75200
MPRPKRPGAPEAKTRSRKGCWPCKARKVKCGEEKPACSNCSRQGVICDYSIRL	34600
HLGHEAQASIEEEEEEEEEEEEEEEEEERRGEGGSVRKATHKIAAATVASVGT	33300
GCKRESQEREEDKNIEKIRKKKQSVVNRKSKRRSETNRRNIKRNNRQHAARER	55600
VFLNGILFLGSILFYQVVLLRLNWYLLHILAYTIAFAYNAFWLYPVYCLSFLL	33000
EGEKKDQESDEKESNEEKKDDVEKLTKEMDKVTIKGEKKILGKSKGFGFVCFS	7730
MKSVVFCFLPLFFFCHSSKANHSSTFISMPPFFSLFFFFFPFSHFPTLSVLFG	50600
KKEGEDGKGKRKVVVYVGNAKFVTQREEGRDAFSASLASFDAQESAHGRTTIY	75600

Sequence	transcriptional activation domain activity
YVILVAVSIFTTTYVMLTSLPVLFQQCPFQTPLSSIIWYLGHFLVIAFLSLFS	62600
RIWLRRLFDIARLLSVGVSNQWSLRMLLDRDAFTPLLIKWLNYYSLRIWTSAV	68500
ESNVAGTAGSKPRKPRAKTQKKMRPSENSQAEKSDRSATRKSREPTGTRRGRK	24800
EASSDGEGAASASDASGDRELVKAKAKKKKKAAGEEGDKPKKKKKSSPKKAKE	27100
SQVAVSPGAVIEVNEEDAGEEQEQQQPARKRQRHRSKRQKLDAEQSAGQGGVV	31700
FVNLPYYPHVHLSSFFFFCFSLSIFVLSFRFVHLIPFPSYLLCLSVRLFFGLL	25600
FDQYLFESISGLILRVQFIGGALPDSISIFEPTLFPPFTEILQGDIDQYIPYV	51300
NIQSFDAIYFAALQVIIVSSANGWSPLMYQMMDSEFFVSCVFFIICIVVLNFW	61500
GRWSYLRTSEMILTFFYKNIMWTLVLFWYQLMCSFTGTMMFDYSYITLYNLVF	63400
MDPQIDSQTPKRPSRGACRECASSKVKCLPQSSTNDGKCERCQLRGKACERRS	22700
MDGVFGVCFLCFISVFYLCFIAFFFSILTTTLLLWLRWGAMFLSFFLSCYLFF	32700
INSTVHNLCELVLLPELFGFCCFSMRFFVFIDLLGTLILPATVVYLLYLIIVV	26100
MFVGGWVMCLLFSKYSIYHLLAICALLFLLEYAFFFLLGIIHLLLLPTFFPFF	37800
IFRVTLLLVYFWTSSIIIGVTQYIGTPLYLISKDHYYRFMAFTKQCMTLLVLS	65400
MRLSRCCVFILLFFFDLVYYYPFLLLFNGFGGICIFLVLKRSHRETEFICFMQ	60600
MLFPPPPFSLFFFSLPFFLFFKTDLFFPCLIFLIPLYPFSPLVGDRLAILLGV	55100
LNILILGSVLTDFDTLLRPETMQWNPPLGVWLIWWMQWQMFIPLLILQFLNLY	55400
LWGHVVMEFCCWDFVRRASGLDSILLLLVYIFSSLPYFFFVLFVCHIAILLLT	34500
VPYQKYLYYPLLCFGRFNLYVLSLEFILRDKGPKSNRWHRFYELSGQVFFWFW	71200
EEQEQDAASKAQEGSKDAPAPKSTENKNEKDAAPNDSSPSKFTKKHKAKKPSK	24700
